This assay addresses human PD-L1 expressed on the cell surface (CHO cells expressing human PD-L1; Promega CS187103 / 187103 cells) (human) (UniProt Q9NZQ7).

Chain of human PD-L1 expressed on the cell surface (CHO cells expressing human PD-L1; Promega CS187103 / 187103 cells) (human) (Q9NZQ7 19-290): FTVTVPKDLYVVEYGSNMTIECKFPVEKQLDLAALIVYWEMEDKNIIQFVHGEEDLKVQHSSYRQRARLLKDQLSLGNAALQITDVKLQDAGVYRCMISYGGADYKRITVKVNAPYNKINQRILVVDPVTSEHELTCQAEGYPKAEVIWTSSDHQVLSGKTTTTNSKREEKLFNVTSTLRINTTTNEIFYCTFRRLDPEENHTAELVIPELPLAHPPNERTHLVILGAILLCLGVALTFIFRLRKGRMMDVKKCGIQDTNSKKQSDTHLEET

B1: 29E.2A3 (antibody, from another filing, V domains shown)
VH: EVQLQQSGPELVKPGASVKMSCKASGYTFTSYVMHWVKQKPGQGLEWIGYVNPFNDGTKYNEMFKGKATLTSDKSSSTAYMELSSLTSEDSAVYYCARQAWGYPWGQGTLVTVSA
VL: DIVLTQSPASLAVSLGQRATISCRATESVEYYGTSLVQWYQQKPGQPPKLLIYAASSVDSGVPARFSGSGSGTDFSLTIHPVEEDDIAMYFCQQSRRVPYTFGGGTKLEIK
Molecule B1 had an EC50, PD-1/PD-L1 blockade (% PDL1 Blockade, NFAT-luciferase reporter) of 170 pM.

The values above are taken from patent US20240002514A1.
